Experimental data from paper PMC10618255, “Cryo-EM structure of human O-GlcNAcylation enzyme pair OGT-OGA complex” (Nature Communications, 2023).

B1: GST-OGA (residues 371-440) (domain or fragment, human, UniProt O60502 371-440, looked up)
chain: DVLYSPQMALKLALTEWLQEFGVPHQYSSRQVAHSGAKASVVDGTPLVAAPSLNATTVVTTVYQEPIMSQ
notes: human OGA, residues 371-440, UniProt O60502, cloned into pGEX-6P-1; also called GST-OGA fragment; source: E. coli BL21 (DE3), purified (Glutathione Sepharose 4B, Resource Q, Superose 6)
B2: full-length human OGT (O-GlcNAc transferase), C-terminal His6 (enzyme, UniProt O15294 1-1046, looked up)
chain: MASSVGNVADSTEPTKRMLSFQGLAELAHREYQAGDFEAAERHCMQLWRQEPDNTGVLLLLSSIHFQCRRLDRSAHFSTLAIKQNPLLAEAYSNLGNVYKERGQLQEAIEHYRHALRLKPDFIDGYINLAAALVAAGDMEGAVQAYVSALQYNPDLYCVRSDLGNLLKALGRLEEAKACYLKAIETQPNFAVAWSNLGCVFNAQGEIWLAIHHFEKAVTLDPNFLDAYINLGNVLKEARIFDRAVAAYLRALSLSPNHAVVHGNLACVYYEQGLIDLAIDTYRRAIELQPHFPDAYCNLANALKEKGSVAEAEDCYNTALRLCPTHADSLNNLANIKREQGNIEEAVRLYRKALEVFPEFAAAHSNLASVLQQQGKLQEALMHYKEAIRISPTFADAYSNMGNTLKEMQDVQGALQCYTRAIQINPAFADAHSNLASIHKDSGNIPEAIASYRTALKLKPDFPDAYCNLAHCLQIVCDWTDYDERMKKLVSIVADQLEKNRLPSVHPHHSMLYPLSHGFRKAIAERHGNLCLDKINVLHKPPYEHPKDLKLSDGRLRVGYVSSDFGNHPTSHLMQSIPGMHNPDKFEVFCYALSPDDGTNFRVKVMAEANHFIDLSQIPCNGKAADRIHQDGIHILVNMNGYTKGARNELFALRPAPIQAMWLGYPGTSGALFMDYIITDQETSPAEVAEQYSEKLAYMPHTFFIGDHANMFPHLKKKAVIDFKSNGHIYDNRIVLNGIDLKAFLDSLPDVKIVKMKCPDGGDNADSSNTALNMPVIPMNTIAEAVIEMINRGQIQITINGFSISNGLATTQINNKAATGEEVPRTIIVTTRSQYGLPEDAIVYCNFNQLYKIDPSTLQMWANILKRVPNSVLWLLRFPAVGEPNIQQYAQNMGLPQNRIIFSPVAPKEEHVRRGQLADVCLDTPLCNGHTTGMDVLWAGTPMVTMPGETLASRVAASQLTCLGCLELIAKNRQEYEDIAVKLGTDLEYLKKVRGKVWKQRISSPLFNTKQYTMELERLYLQMWEHYAAGNKPDHMIKPVEVTESA
notes: human O-GlcNAc transferase (OGT), full length, UniProt O15294; Scissor-shaped homodimer by cryo-EM; also called OGT WT; His6-tagged OGT; source: E. coli BL21 (DE3), purified (Ni-NTA, Resource Q, Superose 6); for the OGT-OGA complex co-expressed with OGA in BL21 (DE3); not shown: His6, C-terminal, kept

Legend:
[1] = O-GlcNAc at S405
[2] = biological target: B2; assay: pull-down; GST pull-down: GST-OGA bait on Glutathione Sepharose 4B, His6-tagged OGT or mutants as prey; all proteins 1 mg/ml; 25 mM Tris pH 8.0, 150 mM NaCl, 2 mM DTT, 0.05% NP40; 2 h at 4 °C; SDS-PAGE with Coomassie staining; settings: both partners purified
[3] = biological target: the molecule itself; assay: cryo-EM structure; single-particle cryo-EM of full-length human OGT alone, incubated with 1 mg/ml UDP-GlcNAc on ice; overall resolution 3.69 Å

## OGA (O-GlcNAcase): OGT H508A mutant bound to OGA
[1]
  enzymatic_activity: no change

## B1
[2]
  binding result: binds

## B2
[3]
  stoichiometry N: 2
